This assay concerns the target KDR (VEGF receptor, flk-1/KDR, VEGFR2) (human) (UniProt P35968). As to the kind of experiment: in vitro receptor saturation; format not stated.

Regarding IMC-1C11 (antibody), the concentration at 50% saturation of VEGF receptors is 0.2 µg/mL and the concentration at 100% saturation of VEGF receptors is 3 µg/mL.
